Experimental findings from patent publication US7932362B2, “Antibodies to NRIF3 proteins” (New York University, priority 1999, dated 2011) are described below.

The subject of one assay is endogenous RAR(s). Put plainly: Transfection study, CAT reporter in HeLa cells, endogenous RAR(s). The settings on record: 1 μM, HeLa cells without receptor expression vector, FIG. 6A. The assay is classed as cell-based, human. An excerpt: (§1) Transfection studies. Most reporters used in this study have been described previously, including IR-ΔMTV-CAT, DR4-ΔMTV-CAT, GH-TRE-tk-CAT, IR+3 (ERE)-ΔMTV-CAT (5, 25, 78). A DR1-ΔMTV-CAT reporter responsive to RXR was obtained from Ron Evans. A GRE/PRE-tk-CAT reporter was obtained from Gunther Schutz. The (IR)2-TATA-CAT was constructed in our laboratory by cloning two copies of the IR sequence (AGGTCA TGACCT) upstream of a TATA element derived from the tk promoter. A hVDR expression vector and the VDRE-ΔMTV-CAT containing the VDRE from the osteocalcin promoter were obtained from J. Wesley Pike. Vectors expressing cTRα, hRARα, hRXRα, rGR, hPR, and hER have been described previously (17, 25, 26, 50, 53, 81). The NRIF3 expression vector was constructed by cloning full length NRIF3 into a pExpress vector (25). Appropriate plasmids were transfected into HeLa cells by calcium phosphate co-precipitation using 25-100 ng of the receptors, 250-500 ng of the CAT reporters, and 750 ng of the NRIF3 or control pExpress vector. After transfection, cells were incubated at 37° C. (with or without cognate ligands) for 42 hours before being harvested. […] Relative CAT activity was determined as the percent acetylation of substrate per 30 μg of cell protein in a 15 hour incubation at 37° C. The results were calculated from duplicate or quadruplicate samples and the variation among samples was less than 10%.

For another assay, the target named is T1, cTRα (Gallus gallus, UniProt P04625).
T1 sequence (P04625 1-408): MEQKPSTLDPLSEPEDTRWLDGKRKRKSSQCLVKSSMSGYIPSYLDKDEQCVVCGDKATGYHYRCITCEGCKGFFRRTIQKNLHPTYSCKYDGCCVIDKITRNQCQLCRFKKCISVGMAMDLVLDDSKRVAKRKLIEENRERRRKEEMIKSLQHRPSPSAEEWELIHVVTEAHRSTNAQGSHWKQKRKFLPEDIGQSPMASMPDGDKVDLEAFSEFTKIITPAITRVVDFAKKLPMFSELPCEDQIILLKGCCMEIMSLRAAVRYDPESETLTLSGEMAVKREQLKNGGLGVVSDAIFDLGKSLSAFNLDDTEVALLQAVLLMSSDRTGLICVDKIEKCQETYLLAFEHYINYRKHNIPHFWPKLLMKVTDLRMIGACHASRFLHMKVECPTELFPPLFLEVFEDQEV
Put plainly: Transfection study, CAT reporter in HeLa cells, TR-mediated transactivation. The assay is classed as cell-based, chicken. The conditions noted are these: IR-ΔMTV-CAT reporter, 1 μM T3, FIG. 5A.
Source text: as §1

Another assay concerns B42-RAR LBD. Put plainly: Yeast two-hybrid assay, LexA-NCD bait with prey B42-RAR LBD. The conditions noted are these: cognate ligand, FIG. 11. Type of assay: cell-based, human. Here is the method: The following receptor baits were used: LexA-cTRα LBD, LexA-hTRβ LBD, LexA-hRARα LBD, LexA-hRXRα LBD, and LexA-hGR LBD. The NRIF3 C-terminal domain (NCD) was fused in frame with the LexA DBD and examined for interaction with receptor LBDs using the following preys: B42-cTRα LBD, B42-hRARα LBD, and B42-hRXRα LBD expressed from pJG4-5. Yeast cells harboring appropriate plasmids were grown in selective media with Gal/Raf in the presence or absence of cognate ligand (1 μM T3 for TR, all trans or 9-cis RA for RAR, 9-cis RA for RXR, and 10 μM deoxycorticosterone for GR) overnight before β-galactosidase activity was assayed using o-Nitrophenyl β-D-Galactopyranoside as the substrate. β-galactosidase units are expressed as (O.D. 420 nm×1000)/(minutes of incubation×O.D. 600 nm of yeast suspension).
Chain of B42-RAR LBD (P10276 183-417 limits assumed): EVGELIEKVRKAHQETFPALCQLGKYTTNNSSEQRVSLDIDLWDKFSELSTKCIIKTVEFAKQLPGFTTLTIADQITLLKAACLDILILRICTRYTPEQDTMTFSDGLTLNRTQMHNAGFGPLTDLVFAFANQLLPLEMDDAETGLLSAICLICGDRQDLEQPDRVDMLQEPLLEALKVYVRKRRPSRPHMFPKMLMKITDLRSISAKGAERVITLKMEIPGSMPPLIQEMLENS
To construct the bait plasmid expressing LexA-NCD, a derivative of pEG202 (which contains a new polylinker) plasmid was digested with NcoI and XhoI and ligated to synthetic oligonucleotides that encode the last 16 amino acids of NRIF3 (residues 162-177). Similarly, mutant NCD was generated by using oligonucleotides that contain the designed mutations in the ligation reaction. All constructs were confirmed by sequence analysis. […]

Another assay deals with LexA-RXR (Homo sapiens, UniProt P19793). The conditions noted are these: yeast two-hybrid, 1 μM 9-cis RA, FIG. 8B.
Chain of LexA-RXR (P19793 227-462): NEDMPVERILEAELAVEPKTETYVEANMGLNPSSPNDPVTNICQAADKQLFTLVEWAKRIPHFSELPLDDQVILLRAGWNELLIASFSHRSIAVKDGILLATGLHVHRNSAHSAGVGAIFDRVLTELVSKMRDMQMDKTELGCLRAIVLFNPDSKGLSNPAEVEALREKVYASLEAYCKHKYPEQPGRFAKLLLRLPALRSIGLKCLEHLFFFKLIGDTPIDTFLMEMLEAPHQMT
A further assay has as its target LexA-TR (Gallus gallus, UniProt P04625). The conditions noted are these: yeast two-hybrid, 1 μM T3, FIG. 8B.
The test system of assay [1] is receptor-mediated transcription. The assay is described as follows: Transfection studies with endonexins (data not shown). The assay is classed as cell-based.
Source text: as §1

Regarding `C/C(=C\c1ccc(C(=O)O)cc1)c1ccc2c(c1)C(C)(C)CCC2(C)C` [TTNPB], the “activation of the IR-ΔMTV-CAT reporter by ligand” value in the assay with endogenous RAR(s) is “activates”.

As for “CBP: reported co-activator for nuclear receptors, used as a control”, the “enhancement of TR-mediated activation of the CAT reporter” value with cTRα is “around 3 fold”. With “NCD: C-terminal domain of NRIF3, amino acids 162-177; docked as 17-residue peptide KASRHLDSYEFLKAILN (SEQ ID NO:7) (C-terminal peptide of NRIF3)”, the “interaction with the LBD of RAR” value in the assay on B42-RAR LBD is “interact efficiently”.

B1: EnL: β3-endonexin long form, 170 amino acids, alternatively spliced product of the same gene as NRIF3 (protein)
chain: MPVKRSLKLDGLLEENSFDPSKITRKKSVITYSPTTGTCQMSLFASPTSSEEQKHRNGLSNEKRKKLNHPSLTESKESTTKDNDEFMMLLSKVEKLSEEIMEIMQNLSSIQALEGSRELENLIGISCASHFLKREMQKTKELMTKVNKQKLFEKSTGLPHKGQPQMSPQL
For the molecule B1, the “interaction with liganded RXR” value in the assay with LexA-RXR was “completely abolished”. Further, the “interaction with liganded TR” value in the assay with LexA-TR is reported as “completely abolished”. In addition, the “effect on receptor-mediated transcription” value in assay [1] is “little effect”.

B2: EnS: β3-endonexin short form, 111 amino acids, identical to the first 111 residues of NRIF3 (protein)
chain: MPVKRSLKLDGLLEENSFDPSKITRKKSVITYSPTTGTCQMSLFASPTSSEEQKHRNGLSNEKRKKLNHPSLTESKESTTKDNDEFMMLLSKVEKLSEEIMEIMQNLSSIQ
B2: the “interaction with liganded RXR” value in the assay with LexA-RXR is “completely abolished”. Moreover, the “interaction with liganded TR” value with LexA-TR is given as “completely abolished”. The “effect on receptor-mediated transcription” value in assay [1] was “little effect”.
